Experimental data published in patent US20250163119A1, “COMPOUNDS FOR THE TREATMENT OF DIABETES OR OBESITY” (Eli Lilly and Company, priority 2023, published 2025).
*1 amine or outer side, *2 acyl side, *3 side chain or, on linkers, in order; H or OH if unused. Where no end group is shown, it is not given here. Side-chain parts run from the residue outwards. [ ]: non-standard residue; d: D form. The star is where a group is joined. C20 diacid = O=C(O)CCCCCCCCCCCCCCCCCCC(=O)*; C18 diacid = O=C(O)CCCCCCCCCCCCCCCCC(=O)*; γGlu = O=C(O)[C@H](CCC(=O)[*:2])N[*:1]; εLys = N[C@@H](CCCCN[*:1])C(=O)[*:2]; pGlu = O=C1CC[C@@H](C(=O)O)N1; αMeL = CC(C)C[C@](C)(N)C(=O)O; PKE = not defined here; AEEA = NCCOCCOCC(=O)O; Aib = CC(C)(N)C(=O)O; Ahx = NCCCCCC(=O)O

T1: human corticotropin-releasing hormone receptor 1 (CRHR1) (human, UniProt P34998 24-415)
T1 sequence (looked up): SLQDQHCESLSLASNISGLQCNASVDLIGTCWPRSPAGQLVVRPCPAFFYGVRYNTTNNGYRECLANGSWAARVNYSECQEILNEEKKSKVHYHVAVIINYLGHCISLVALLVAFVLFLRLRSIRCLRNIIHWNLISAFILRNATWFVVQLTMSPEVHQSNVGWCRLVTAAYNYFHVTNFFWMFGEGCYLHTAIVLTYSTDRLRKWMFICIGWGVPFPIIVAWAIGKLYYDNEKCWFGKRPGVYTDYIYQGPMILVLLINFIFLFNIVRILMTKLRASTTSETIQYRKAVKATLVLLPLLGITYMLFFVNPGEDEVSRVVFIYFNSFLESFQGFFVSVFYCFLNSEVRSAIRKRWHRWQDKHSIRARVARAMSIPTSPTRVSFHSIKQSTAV


Biological target: T1, human corticotropin-releasing hormone …
Test: cell-based or functional assay

| Binder | hCRHR1 cAMP EC50 [µM] |
| --- | --- |
| Ac-GSPSIVTS[αMeL]DVPT[Aib][αMeL]LQKILEQERAEKARQQAK([γGlu-εLys-γGlu-εLys-C20 diacid])EAAEILAQV-NH2 [polypeptide comprising SEQ ID NO:18] | > 10 |
| Ac-GSPSIVTS[αMeL]DVPT[Aib][αMeL]LQKILEQERAEKARQQAK([γGlu-εLys-AEEA-εLys-C20 diacid])EAAEILAQV-NH2 [polypeptide comprising SEQ ID NO:19] | > 10 |
| Ac-GSPSIVTS[αMeL]DVPT[Aib][αMeL]LQKILEQERAEKARQQAKEAAEILAQV-NH2 [polypeptide comprising SEQ ID NO:20] | > 10 |
| Ac-GSPSIVTS[αMeL]DVPT[Aib][αMeL]LQKILEQERAEKARQQAK([γGlu-AEEA-εLys-C18 diacid])EAAEILAQV-NH2 [polypeptide comprising SEQ ID NO:21] | > 10 |
| [pGlu]GSPSGIVTS[αMeL]DVPT[Aib][αMeL]LQKILEQERAEKARQQAKEAAEILAQV-NH2 [polypeptide comprising SEQ ID NO:23] | > 10 |
| [pGlu]GSPSGIVTS[αMeL]DVPT[Aib][αMeL]LQKILEQERAEKARQQAK([γGlu-AEEA-εLys-C18 diacid])EAAEILAQV-NH2 [polypeptide comprising SEQ ID NO:24] | > 10 |
| [γGlu]GSPSIVTS[αMeL]DVPT[Aib][αMeL]LQKILEQERAEKARQQATEAAEILAQV-NH2 (not fully specified (residue 1, N-terminus); also: Glu1 linked through its gamma-carboxyl to Gly2) [polypeptide comprising SEQ ID NO:26] | > 10 |
| H-GSPSIVTS[αMeL]DVPT[Aib][αMeL]LQKILEQERAEKARQQATEAAEILAQV-NH2 [polypeptide comprising SEQ ID NO:27] | > 10 |
| [γGlu]GSPSIVTS[αMeL]DVPT[Aib][αMeL]LQKILEQERAEKARQQATEAAEILAQV-NH2 (not fully specified (residue 1, N-terminus); also: Glu1 linked through its gamma-carboxyl to Gly2) [polypeptide comprising SEQ ID NO:28] | > 10 |
| Ac-GSPSIVTS[αMeL]DVPT[Aib][αMeL]LQKILEQERAEKARQQAK([AEEA-PKE-γGlu-C20 diacid])EAAEILAQV-NH2 (reading uncertain) [polypeptide comprising SEQ ID NO:3] | > 10 |
| Ac-IVTS[αMeL]D[dV]PTG[αMeL]LQIKLEQERAEKARQQAKENTEILAQV-NH2 (not fully specified (residue 29)) [polypeptide comprising SEQ ID NO:30] | > 10 |
| Ac-IVTS[αMeL]D[dV]PTG[αMeL]LQIKLEQERAEKARQQAKENTEILAQV-NH2 (not fully specified (residue 29)) [polypeptide comprising SEQ ID NO:31] | > 10 |
| Ac-IVTS[αMeL]D[dV]PTG[αMeL]LQIKLEQERAEKARQQAKENTEILAQV-NH2 (not fully specified (residue 29)) [polypeptide comprising SEQ ID NO:32] | > 10 |
| Ac-IVTS[αMeL]D[dV]PTG[αMeL]LQIKLEQERAEKARQQAKENTEILAQV-NH2 (not fully specified (residue 29)) [polypeptide comprising SEQ ID NO:33] | 1.1 |
| Ac-IVTS[αMeL]D[dV]PTG[αMeL]LQIKLEQERAEKARQQAKENTEILAQV-NH2 (not fully specified (residue 29)) [polypeptide comprising SEQ ID NO:34] | > 10 |
| Ac-IVTS[αMeL]D[dV]PTG[αMeL]LQIKLEQERAEKARQQAKENTEILAQV-NH2 (not fully specified (residue 29)) [polypeptide comprising SEQ ID NO:35] | 3 |
| Ac-IVTS[αMeL]D[dV]PTG[αMeL]LQIKLEQERAEKARQQAKENTEILAQV-NH2 (not fully specified (residue 29)) [polypeptide comprising SEQ ID NO:36] | 1.8 |
| Ac-IVTS[αMeL]D[dV]PTG[αMeL]LQIKLEQERAEKARQQAKENTEILAQV-NH2 (not fully specified (residue 29)) [polypeptide comprising SEQ ID NO:37] | 1.7 |
| Ac-IVTS[αMeL]D[dV]PTG[αMeL]LQIKLEQERAEKARQQAKENTEILAQV-NH2 (not fully specified (residue 29)) [polypeptide comprising SEQ ID NO:38] | 1.1 |
| Ac-IVTS[αMeL]D[dV]PTG[αMeL]LQIKLEQERAEKARQQAKENTEILAQV-NH2 (not fully specified (residue 29)) [polypeptide comprising SEQ ID NO:39] | 3.7 |
| Ac-GSPSIVTS[αMeL]DVPT[Aib][αMeL]LQKILEQERAEKARQQAK([Ahx-AEEA-γGlu-C20 diacid])EAAEILAQV-NH2 [polypeptide comprising SEQ ID NO:4] | > 10 |
| Ac-IVTS[αMeL]D[dV]PTG[αMeL]LQIKLEQERAEKARQQAKENTEILAQV-NH2 (not fully specified (residue 29)) [polypeptide comprising SEQ ID NO:40] | > 10 |
| Ac-IVTS[αMeL]D[dV]PT[Aib][αMeL]LQIKLEQERAEKARQQAK([AEEA-AEEA-γGlu-C20 diacid])ENTEILAQV-NH2 (SMILES CC[C@H](C)[C@H](NC(C)=O)C(=O)N[C@H](C(=O)N[C@H](C(=O)N[C@@H](CO)C(=O)N[C@@](C)(CC(C)C)C(=O)N[C@@H](CC(=O)O)C(=O)N[C@@H](C(=O)N1CCC[C@H]1C(=O)N[C@H](C(=O)NC(C)(C)C(=O)N[C@@](C)(CC(C)C)C(=O)N[C@@H](CC(C)C)C(=O)N[C@@H](CCC(N)=O)C(=O)N[C@H](C(=O)N[C@@H](CCCCN)C(=O)N[C@@H](CC(C)C)C(=O)N[C@@H](CCC(=O)O)C(=O)N[C@@H](CCC(N)=O)C(=O)N[C@@H](CCC(=O)O)C(=O)N[C@@H](CCCNC(=N)N)C(=O)N[C@@H](C)C(=O)N[C@@H](CCC(=O)O)C(=O)N[C@@H](CCCCN)C(=O)N[C@@H](C)C(=O)N[C@@H](CCCNC(=N)N)C(=O)N[C@@H](CCC(N)=O)C(=O)N[C@@H](CCC(N)=O)C(=O)N[C@@H](C)C(=O)N[C@@H](CCCCNC(=O)COCCOCCNC(=O)COCCOCCNC(=O)CC[C@H](NC(=O)CCCCCCCCCCCCCCCCCCC(=O)O)C(=O)O)C(=O)N[C@@H](CCC(=O)O)C(=O)N[C@@H](CC(N)=O)C(=O)N[C@H](C(=O)N[C@@H](CCC(=O)O)C(=O)N[C@H](C(=O)N[C@@H](CC(C)C)C(=O)N[C@@H](C)C(=O)N[C@@H](CCC(N)=O)C(=O)N[C@H](C(N)=O)C(C)C)[C@@H](C)CC)[C@@H](C)O)[C@@H](C)CC)[C@@H](C)O)C(C)C)[C@@H](C)O)C(C)C) [polypeptide comprising SEQ ID NO:41] | 3.7 |
| Ac-IVTS[αMeL]D[dV]PI[Aib][αMeL]LQIKLEQERAEKARQQAK([AEEA-AEEA-γGlu-C20 diacid])ENTEILAQV-NH2 (SMILES CC[C@H](C)[C@H](NC(C)=O)C(=O)N[C@H](C(=O)N[C@H](C(=O)N[C@@H](CO)C(=O)N[C@@](C)(CC(C)C)C(=O)N[C@@H](CC(=O)O)C(=O)N[C@@H](C(=O)N1CCC[C@H]1C(=O)N[C@H](C(=O)NC(C)(C)C(=O)N[C@@](C)(CC(C)C)C(=O)N[C@@H](CC(C)C)C(=O)N[C@@H](CCC(N)=O)C(=O)N[C@H](C(=O)N[C@@H](CCCCN)C(=O)N[C@@H](CC(C)C)C(=O)N[C@@H](CCC(=O)O)C(=O)N[C@@H](CCC(N)=O)C(=O)N[C@@H](CCC(=O)O)C(=O)N[C@@H](CCCNC(=N)N)C(=O)N[C@@H](C)C(=O)N[C@@H](CCC(=O)O)C(=O)N[C@@H](CCCCN)C(=O)N[C@@H](C)C(=O)N[C@@H](CCCNC(=N)N)C(=O)N[C@@H](CCC(N)=O)C(=O)N[C@@H](CCC(N)=O)C(=O)N[C@@H](C)C(=O)N[C@@H](CCCCNC(=O)COCCOCCNC(=O)COCCOCCNC(=O)CC[C@H](NC(=O)CCCCCCCCCCCCCCCCCCC(=O)O)C(=O)O)C(=O)N[C@@H](CCC(=O)O)C(=O)N[C@@H](CC(N)=O)C(=O)N[C@H](C(=O)N[C@@H](CCC(=O)O)C(=O)N[C@H](C(=O)N[C@@H](CC(C)C)C(=O)N[C@@H](C)C(=O)N[C@@H](CCC(N)=O)C(=O)N[C@H](C(N)=O)C(C)C)[C@@H](C)CC)[C@@H](C)O)[C@@H](C)CC)[C@@H](C)CC)C(C)C)[C@@H](C)O)C(C)C) [polypeptide comprising SEQ ID NO:42] | 2.3 |
| Ac-IVTS[αMeL]D[dV]PTG[αMeL]LQIKLEQERAEKARQQAKENTEILAQV-NH2 (not fully specified (residue 29)) [polypeptide comprising SEQ ID NO:43] | > 10 |
| Ac-IVTS[αMeL]D[dV]PTG[αMeL]LQIKLEQERAEKARQQAKENTEILAQV-NH2 (not fully specified (residue 29)) [polypeptide comprising SEQ ID NO:44] | > 10 |
| [γGlu]GPSIVTS[αMeL]D[dV]PI[Aib][αMeL]LQIKLEQERAEKARQQAK([AEEA-AEEA-γGlu-C20 diacid])ENTEILAQV-NH2 [polypeptide comprising SEQ ID NO:45] | 3.7 |
